Assay results reported in patent US20190300617A1 (Amgen, published 2019).

B1: Erenumab HIC-HPLC Pre-peak Fraction F1 (antibody, human IgG2, lambda, V domains shown)
VH: QVQLVESGGGVVQPGRSLRLSCAASGFTFSSFGMHWVRQAPGKGLEWVAVISFDGSIKYSVDSVKGRFTISRDNSKNTLFLQMNSLRAEDTAVYYCARDRLNYYDSSGYYHYKYYGMAVWGQGTTVTVSS
VL: QSVLTQPPSVSAAPGQKVTISCSGSSSNIGNNYVSWYQQLPGTAPKLLIYDNNKRPSGIPDRFSGSKSGTSTTLGITGLQTGDEADYYCGTWDSRLSAVVFGGGTKLTVLG
modifications: Asp105 isomerization 0.6%; Asp105 succinimide 0.2%; Asn102 deamidation ND; Leu195/Ser196 cleavage 10.9%; further cleavage sites Leu315/Thr316, Ser197/Val198, Leu192/Tyr193, Gly108/Tyr109, Asp105/Ser106
B2: Erenumab HIC-HPLC Pre-peak Fraction F4 (antibody, human IgG2, lambda, V domains shown)
VH: B1 VH
VL: B1 VL
modifications: Asp105 isomerization (isoAsp) 5.5%; Asp105 succinimide 4.3%; Asn102 deamidation 11.6%; Leu195/Ser196 cleavage 0.4%
B3: Erenumab HIC-HPLC Post-peak Fraction F6 (antibody, human IgG2, lambda, V domains shown)
VH: B1 VH
VL: B1 VL
modifications: Asp105 isomerization (isoAsp) 13.2%; Asp105 succinimide 0.1%; Asn102 deamidation ND; Leu195/Ser196 cleavage 0.6%
B4: Erenumab HIC-HPLC Pre-peak Fraction F2 (antibody, human IgG2, lambda, V domains shown)
VH: B1 VH
VL: B1 VL
modifications: Asp105 isomerization (isoAsp) 26.4%; Asp105 succinimide 1.4%; Asn102 deamidation 0.1%; Leu195/Ser196 cleavage 1.0%
B5: Erenumab HIC-HPLC Post-peak Fraction F7 (antibody, human IgG2, lambda, V domains shown)
VH: B1 VH
VL: B1 VL
modifications: Asp105 isomerization (isoAsp) 2.4%; Asp105 succinimide 0.1%; Asn102 deamidation ND; Leu195/Ser196 cleavage 1.1%
B6: Erenumab HIC-HPLC Pre-peak Fraction F3 (antibody, human IgG2, lambda, V domains shown)
VH: B1 VH
VL: B1 VL
modifications: Asp105 isomerization (isoAsp) 19.6%; Asp105 succinimide 12.6%; Asn102 deamidation 1.2%; Leu195/Ser196 cleavage 0.5%
B7: Erenumab HIC-HPLC Main Fraction F5 (antibody, human IgG2, lambda, V domains shown)
VH: B1 VH
VL: B1 VL
modifications: Asp105 isomerization ND; Asp105 succinimide 0.1%; Asn102 deamidation ND; Leu195/Ser196 cleavage 0.3%
B8: Erenumab SE-UHPLC Fraction HMW 2 (antibody, human IgG2, lambda, V domains shown)
VH: B1 VH
VL: B1 VL
B9: Erenumab SE-UHPLC Fraction HMW 1 (antibody, human IgG2, lambda, V domains shown)
VH: B1 VH
VL: B1 VL
B10: Erenumab SE-UHPLC Fraction Main (antibody, human IgG2, lambda, V domains shown)
VH: B1 VH
VL: B1 VL
B11: Erenumab CEX-HPLC Main Fraction F5 (antibody, human IgG2, lambda, V domains shown)
VH: B1 VH
VL: B1 VL
modifications: disulfide isoforms by RP-HPLC: 2.9% IgG2-B, 33.9% IgG2-A/B, 62.4% IgG2-A
B12: Erenumab CEX-HPLC Basic Fraction F8 (antibody, human IgG2, lambda, V domains shown)
VH: B1 VH
VL: B1 VL
modifications: disulfide isoforms by RP-HPLC: 2.0% IgG2-B, 23.3% IgG2-A/B, 73.3% IgG2-A
B13: Erenumab CEX-HPLC Basic Fraction F7 (antibody, human IgG2, lambda, V domains shown)
VH: B1 VH
VL: B1 VL
modifications: disulfide isoforms by RP-HPLC: 3.9% IgG2-B, 28.6% IgG2-A/B, 65.4% IgG2-A
B14: Erenumab CEX-HPLC Basic Fraction F9 (antibody, human IgG2, lambda, V domains shown)
VH: B1 VH
VL: B1 VL
modifications: disulfide isoforms by RP-HPLC: 11.0% IgG2-B, 31.3% IgG2-A/B, 55.9% IgG2-A
B15: Erenumab CEX-HPLC Main Fraction F6 (antibody, human IgG2, lambda, V domains shown)
VH: B1 VH
VL: B1 VL
modifications: disulfide isoforms by RP-HPLC: 3.9% IgG2-B, 27.8% IgG2-A/B, 65.5% IgG2-A
B16: Erenumab CEX-HPLC Acidic Fraction F2 (antibody, human IgG2, lambda, V domains shown)
VH: B1 VH
VL: B1 VL
modifications: disulfide isoforms by RP-HPLC: 21.4% IgG2-B, 40.4% IgG2-A/B, 35.8% IgG2-A
B17: Erenumab CEX-HPLC Acidic Fraction F3 (antibody, human IgG2, lambda, V domains shown)
VH: B1 VH
VL: B1 VL
modifications: disulfide isoforms by RP-HPLC: 11.2% IgG2-B, 55.1% IgG2-A/B, 32.4% IgG2-A
B18: Erenumab CEX-HPLC Acidic Fraction F4 (antibody, human IgG2, lambda, V domains shown)
VH: B1 VH
VL: B1 VL
modifications: disulfide isoforms by RP-HPLC: 7.0% IgG2-B, 52.5% IgG2-A/B, 39.4% IgG2-A

Target: T1, human CGRP receptor (human, UniProt Q16602 23-461; O60894 27-148)
T1 sequence (Q16602 23-461, chain 1 of 2): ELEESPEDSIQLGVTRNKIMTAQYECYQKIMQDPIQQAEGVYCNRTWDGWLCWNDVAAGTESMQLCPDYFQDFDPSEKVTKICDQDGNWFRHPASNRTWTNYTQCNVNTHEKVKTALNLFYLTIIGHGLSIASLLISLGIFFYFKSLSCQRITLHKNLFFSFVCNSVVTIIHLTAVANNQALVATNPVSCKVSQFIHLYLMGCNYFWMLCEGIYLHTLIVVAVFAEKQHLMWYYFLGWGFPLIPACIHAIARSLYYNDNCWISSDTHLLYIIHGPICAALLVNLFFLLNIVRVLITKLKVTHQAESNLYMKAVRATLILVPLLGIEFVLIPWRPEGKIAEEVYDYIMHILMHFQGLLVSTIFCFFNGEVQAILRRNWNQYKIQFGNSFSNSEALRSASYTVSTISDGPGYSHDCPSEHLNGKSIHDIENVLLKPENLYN
T1 sequence (O60894 27-148, chain 2 of 2): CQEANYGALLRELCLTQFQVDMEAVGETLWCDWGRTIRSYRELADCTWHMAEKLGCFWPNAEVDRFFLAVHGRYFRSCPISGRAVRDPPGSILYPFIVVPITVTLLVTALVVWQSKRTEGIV
Assay: cell-based or functional assay

% Relative Potency by Cell-Based Bioassay | Binder
33% | B1
34% | B2
77% | B3
24% | B4
68% | B5
35% | B6
107% | B7

Target: T1, human CGRP receptor
Assay: cell-based or functional assay
Remark: another data set of the same source

% Relative Potency by Cell-Based Bioassay | Binder
62% | B8
42% | B9
97% | B10

Target: T1, human CGRP receptor
Assay: cell-based or functional assay
Remark: another data set of the same source

% Relative Potency by Cell-Based Bioassay | Binder
101% | B11
102% | B12
96% | B13
98% | B14
92% | B15
58% | B16
71% | B17
82% | B18
